# Source: patent US20240343803A1 (SHANDONG SIMCERE BIOPHARMACEUTICAL, published 2024)
# T1: cynomolgus monkey PVRIG on FlpinCHO-cyno PVRIG cells (cynomolgus monkey, UniProt A0A2K5WVV8 41-322)
# T1 construct: whole, on cells
# T1 sequence: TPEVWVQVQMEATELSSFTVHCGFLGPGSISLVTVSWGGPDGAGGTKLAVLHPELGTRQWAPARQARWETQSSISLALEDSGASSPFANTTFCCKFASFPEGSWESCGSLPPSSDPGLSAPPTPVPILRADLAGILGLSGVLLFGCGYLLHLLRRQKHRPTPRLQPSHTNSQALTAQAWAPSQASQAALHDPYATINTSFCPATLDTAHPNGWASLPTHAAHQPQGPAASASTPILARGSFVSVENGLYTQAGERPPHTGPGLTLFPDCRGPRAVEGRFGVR
# T2: human PVRIG on FlpinCHO-PVRIG cells (human, UniProt Q6DKI7 41-326)
# T2 construct: whole, on cells
# T2 sequence (looked up): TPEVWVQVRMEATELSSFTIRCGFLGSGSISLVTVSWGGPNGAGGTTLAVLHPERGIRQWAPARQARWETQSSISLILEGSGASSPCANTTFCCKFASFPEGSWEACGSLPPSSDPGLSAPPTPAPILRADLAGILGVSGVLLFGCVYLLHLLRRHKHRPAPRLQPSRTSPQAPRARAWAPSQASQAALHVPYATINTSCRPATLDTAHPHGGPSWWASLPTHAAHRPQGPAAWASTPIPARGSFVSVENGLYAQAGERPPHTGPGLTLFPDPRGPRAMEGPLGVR
# T3: cynomolgus monkey PVRIG (Novoprotein, Cat NO. C09B) (cynomolgus monkey, UniProt A0A2K5WVV8 41-171)
# T3 construct: Bought reagent; also called cynomolgus monkey PVRIG protein
# T3 sequence: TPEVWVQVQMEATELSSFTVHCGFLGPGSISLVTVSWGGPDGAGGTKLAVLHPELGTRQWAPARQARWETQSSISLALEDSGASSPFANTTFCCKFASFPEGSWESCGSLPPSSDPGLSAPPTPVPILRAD
# T4: human PVRIG-his (AcroBiosystems, Cat NO. PVG-H52H4) (human, UniProt Q6DKI7 41-171, limits assumed)
# T4 construct: Bought reagent; also called human PVRIG protein
# T4 sequence (looked up): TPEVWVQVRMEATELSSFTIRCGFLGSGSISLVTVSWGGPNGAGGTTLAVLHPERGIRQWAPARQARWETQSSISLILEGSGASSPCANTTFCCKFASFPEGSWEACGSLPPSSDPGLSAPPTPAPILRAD
# B1: PVRIG-A15 (Fc fusion)
# chain: QVQLVESGGGLVQAGGSLRLSCVASGRTFSANTMAWFRQAPGKEREFVAYTRWTDDNTDYASYADFVKGRFTAFRDNTRNTMYLQMNRLRPEDTAVYYCAAATTRGTYYSAGDYNSWGQGTQVTVSS
# notes: Alpaca VHH joined to human IgG1 Fc (VHH-hinge-CH2-CH3); not shown: human IgG1 hinge-CH2-CH3
# B2: PVRIG-A50 (Fc fusion)
# chain: EVQLVESGGGLVQPGGSLRLSCAASGFTFSYYDMSWVRQAPGKGLEWVSTINSNGGRTSYVDSVKGRFTISRDNTKNTLYLQMNSLKPEDTAVYYCVEGDPHNFGLENLSLRDFGSWGQGTQVTVSS
# notes: as for B1
# B3: PVRIG-A30 (Fc fusion)
# chain: QVQLVESGGGLVQPGGSLRLSCAASGRTDSMNVMGWFRRAPGKEREFVARIKWNGDTTYTAYADFLKGRFTLYGAVARNRVYLQMNSLQPEDTAVYYCAAGEVSGSSYSPDYGMHYWGKGTLVTVSS
# notes: as for B1
# B4: PVRIG-A113 (Fc fusion)
# chain: QLQLVESGGGLVQSGGSLRLSCAASGRTRSMYVMGWFRQAPGKEREFVGRIKWSGDTTYTSYADFVKGRFTLYGNQARNTVYLQMNSLKPEDTAVYYCAALPSDYDYRAASYGVDYWGKGTLVTVSS
# notes: as for B1
# B5: PVRIG-A75 (Fc fusion)
# chain: QLQLVESGGGLVQSGGSLRLSCAASGRTRSMYVMGWFRQAPGKEREFVGRIKWSGDTTYTSYADFVKGRFTLYGNQARNTVYLQMNSLKPEDTAVYSCAASKFPVSGVPEHYDYWGQGTQVTVSS
# notes: as for B1
# B6: PVRIG-A118 (Fc fusion)
# chain: QVQLVESGGGLVQAGGSLRLSCAASETYFDLYVMGWYRQAPGKDRELVATITYTGSIKIVDSVKDRFTISRGDAKNTVSLQMSSLKPEDTAVYFCNADPSGLGRKVYWGQGTQVTVSS
# notes: as for B1
# B7: PVRIG-A60 (Fc fusion)
# chain: QVQLVESGGGLVQSGGSLRLSCAASGRTRSMYVMGWFRQAPGKEREFVGRIKWSGDTTYTSYADFVKGRFTLYGNQARNTVYLQMNSLKPEDAAVYYCNLRRLDGVNYWGKGTLVTVSS
# notes: as for B1
# B8: PVRIG-A35 (Fc fusion)
# chain: EVQVVESGGGLVQSGGSLRLSCAASGRTRSMYVMGWFRQAPGKEREFVGRIKWSGDTTYTSYADFVKGRFTLYGNQARNTVYLQMNSLKPEDTAVYYCNGRSRFNVINAWGTGTLVTVAS
# notes: as for B1
# B9: PVRIG-A117 (Fc fusion)
# chain: EVQVVESGGGLVQAGGSLRLSCTASEHIYDLYIMGWYRQAPGKDRELVATITYTGSIYIADSVKDRFTISRGNAKNTVSLQMSGLKPEDTAVYYCNADPSGLGRKLYWGQGTQVTVSS
# notes: as for B1
# Target: T1, cynomolgus monkey PVRIG on …
# Experiment: FACS, FlpinCHO-cyno PVRIG cells; AUC of MFI curve relative to SRF813-hIgG1
# Method: (§1) The Ham's F12 (Gibico, 21127-022) complete medium containing 10% FBS was then added to terminate the digestion and acquire cell suspension. After counting with a cell counter (Beckman Coulter, Vi-CELL), an appropriate amount of cell suspension was centrifuged at 350×g to remove the supernatant, washed twice with PBS, stained with Zombie violet (Biolegend, 423114) and incubated at room temperature for 20 minutes. After incubation, the cells were added with staining buffer (2% FBS+PBS) to stop staining, centrifuged at 350×g to remove the supernatant, washed twice and resuspended with staining buffer to a density of 2×10⁶ cells/mL. The cells were plated into a 96-well plate (50 μL of cell suspension per well) for further use. The antibodies were diluted from the highest concentration of 46 nM (two-fold concentration) with staining buffer by 3.3-fold serial dilution. The diluted antibodies were added to the well containing 50 μL of cell suspension. The plate was placed on a microplate shaker at 400 rpm for 1 minute to fully mix the antibodies and cells, and then incubated at 4° C. for 30 minutes. After the incubation, the cells were washed twice with staining buffer (200 μL per well) and centrifuged at 350×g for 5 minutes to discard the supernatant. The PE goat anti-human IgG Fc antibody (ebioscience, 12-4998-82) was diluted 250 times with staining buffer, added into the washed wells (100 μL per well), mixed well, and stained at 4° C. for 30 minutes. After staining, the cells were washed twice with staining buffer, finally resuspended with 200 μL staining buffer and analyzed by flow cytometry (BD, Canto II). The stronger the signal, the stronger the ability of the antibodies binds to PVRIG. An antibody binding curve was drawn with concentration of antibodies as the abscissa and the corresponding Mean Fluorescence Intensity (MFI) as the ordinate. The AUC value of the curve was calculated by using a Four Parameter Logistic Fit (GraphPadPrism9). The stronger the AUC value, the stronger the ability of the antibodies binds to FlpinCHO-PVRIG and FlpinCHO-cyno PVRIG. […] The binding activity of the antibodies was normalized to the positive control COM701-hIgG1 and SRF813-hIgG1.
row,Binder,% AUC to SRF813-hIgG1 [%]
1,B1,29.1
2,B2,69.7
3,B3,33.8
4,B4,52.7
5,B5,62.4
6,B6,80.4
7,B7,82.9
8,B8,25.3
9,B9,174

# Target: T2, human PVRIG on FlpinCHO-PVRIG cells
# Experiment: FACS, FlpinCHO-PVRIG cells; AUC of MFI curve relative to SRF813-hIgG1
# Method: as §1
row,Binder,% AUC to SRF813-hIgG1 [%]
1,B1,42.7
2,B2,115
3,B3,34.4
4,B4,57.4
5,B5,54.5
6,B6,232
7,B7,68.6
8,B8,134
9,B9,181

# Target: T3, cynomolgus monkey PVRIG (Novoprotein, …)
# Experiment: ELISA, coated cynomolgus monkey PVRIG
# Method: (§2) The ELISA plate was pre-coated with 100 μL/well of 0.5 μg/mL human PVRIG-his (AcroBiosystems, Cat NO. PVG-H52H4) or cynomolgus monkey PVRIG (Novoprotein, Cat NO. C09B). […] A HRP substrate, TMB (Thermo, Cat NO. 34029) was added into wells after washing the plate again for color development. After adding a termination solution to terminate the reaction, the absorbance value was read by a microplate reader (MD i3×). An antibody binding curve was drawn with concentration of antibodies as the abscissa and the corresponding OD value as the ordinate. The EC50 value was calculated by using a Four Parameter Logistic Fit (GraphPadPrism9). The smaller the EC50 value, the stronger the ability of the antibodies binds to human or cynomolgus monkey PVRIG. The positive control antibodies are COM701-hIgG1 (Patent No.:US20180244774A1), COM701-hIgG4 (patent No.: US20180244774A1) and SRF813-hIgG1 (Patent No.:US20200040081A1); and the negative control antibodies are anti-HA HcAb-hIgG1 (Chengdu NB Biolab, Cat NO. NBR022), anti-CD38 HcAb-hIgG1 (in-house) and anti-Fluorescein-hIgG1 (in house).
row,Binder,EC50 [nM]
1,B1,0.129
2,B2,0.0534
3,B3,0.093
4,B4,0.0443
5,B5,0.0288
6,B6,0.0341
7,B7,0.0343
8,B8,0.0288
9,B9,0.0418

# Target: T2, human PVRIG on FlpinCHO-PVRIG cells
# Experiment: FACS, FlpinCHO-PVRIG cells; AUC of MFI curve relative to COM701-hIgG1
# Method: as §1
row,Binder,% AUC to COM701-hIgG1 [%]
1,B1,36.3
2,B2,89.5
3,B3,29.3
4,B4,42.4
5,B5,50.6
6,B6,153
7,B7,63.3
8,B8,122
9,B9,133

# Target: T1, cynomolgus monkey PVRIG on …
# Experiment: FACS, FlpinCHO-cyno PVRIG cells; AUC of MFI curve relative to COM701-hIgG1
# Method: as §1
row,Binder,% AUC to COM701-hIgG1 [%]
1,B1,24.8
2,B2,59.3
3,B3,28.7
4,B4,38.6
5,B5,47.6
6,B6,66.4
7,B7,63.4
8,B8,19.3
9,B9,128

# Target: T4, human PVRIG-his (AcroBiosystems, Cat …)
# Experiment: ELISA, coated human PVRIG-his
# Method: as §2
row,Binder,EC50 [nM]
1,B1,0.208
2,B2,0.196
3,B3,0.255
4,B4,0.092
5,B5,0.0621
6,B6,0.0513
7,B7,0.0557
8,B8,0.0543
9,B9,0.0528
